Data: US20100261660A1 (published 2010)
Positions count from the first letter of the chain named. One block for each binder: values may come before it.

Columns and labels:
[1] = biological target: T1, Soluble CTLA-4-Ig (extracellular domain of human CTLA-4 fused to the Fc portion of human IgG1) (human, UniProt P16410 36-161, FITC-conjugated in the FACS binding assays); test: competitive FACS on transfected cells, FITC-sCTLA-4-Ig with biotin-sCD28-Ig; grade 0-2 of CTLA-4/CD28 ratio vs WT hB7-1
T1 construct: extracellular domain; bought from R&D Systems; also called sCTLA-4-Ig; CTLA-4-Ig Fc; not shown: Fc portion of human IgG1

[2] = biological target: T2, Soluble CD28-Ig (extracellular domain of human CD28 fused to the Fc portion of human IgG1) (human, UniProt P10747 19-152, biotin-conjugated (NHS-biotin) in the FACS binding assays); test: competitive FACS on transfected cells, biotin-sCD28-Ig with FITC-sCTLA-4-Ig; grade 0-2 of CD28/CTLA-4 ratio vs WT hB7-1
T2 construct: extracellular domain; bought from R&D Systems; also called sCD28-Ig; CD28-Ig Fc; not shown: Fc portion of human IgG1

T1 sequence (P16410 36-161): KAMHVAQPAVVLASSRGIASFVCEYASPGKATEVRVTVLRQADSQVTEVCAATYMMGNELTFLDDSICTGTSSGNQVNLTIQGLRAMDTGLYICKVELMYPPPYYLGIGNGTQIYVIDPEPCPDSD

B1: Round 2 CTLA4BP-5x5-2e (ligand)
chain: VIHVTKEVKEVATLSCGLNVSVEELAQTRIHWQKEKKMVLTMMSGDMNIWPEYKNRTIFDITNNLSIVILALRPSDEGTYECVVLKYEKDAFKREHLAEVMLSVKADFPTPSISDFEIPPSNIRRIICSTSGGFPEPHLSWLENGEELNAINTTVSQDPETELYAVSSKLDFNMTTNHSFMCLIKYGHLRVNQTFNWNTPKQEHFPDNLLPSWAITLISVNGIFVICCLTYCFAPRCRERRRNETLRRESVRPV
Binding Score [1]: 2

B2: Round 2 CTLA4BP-5x2-11d (ligand)
chain: B1 chain with L18H, S114T, S140F, A165T, N177D, H178R, M181V, V220A, R241K, R242S
Binding Score [1]: 2

B4: Round 2 CTLA4BP-5x9-12c (ligand)
chain: B1 chain with L18H, S114T, V155A, A165T, R241K, R242S, T245R
Binding Score [1]: 2

B7: Round 2 CTLA4BP 2x3-h2 (ligand)
chain: VIHVTKEVKEVATLSCGHNVSVEELAQTRIYWQKEKKMVLTMMSGDMNIWPEYKNRTIFDITNNLSIVILALRPSDEGTYECVVLKYEKDAFKREHLAEVMLSVKADFPTPSISDFEIPPSNIRRIICSTPGGFPEPRLAWMEDGEELNAISTTVSQDPGTELYAVSSKLDFNMTTNHSFMCLIKYGHLRVNQTFNWNTTKQEHFPDNLLPSWAITLISVKGIFVICCLTYCFAPRWRERKSNERLRRESVRPV
Binding Score [1]: 0

B9: Round 2 CTLA4 A-B4-6 (ligand)
chain: ITPKSVTKRVKETVMLSCDYNTSTEELTSLRIYWQKDSKMVLAILPGKVQVWPEYKNRTITDMNDNPRIVILALRLSDKGTYTCVVQKNENGSFRREHLTSVTLSIRADFPVPTINDLGNPSPNIRRLICSTSGGFPRPHLYWLENGEELNATNTTLSQDPETKLYMISSELDFNMTSNHSFLCLVKYGDLTVSQTFYWQESKPTPSANQHLTWTIIIPVSAFGISVIIAVILTCLTCRNAAIRRQRRENEVEMQSCSQSP
Binding Score [1]: 1

B10: Round 2 CTLA4 A-E2-6 (ligand)
chain: B9 chain with K79S, T103R, S105M, S158P
Binding Score [1]: 1

B11: Round 2 CTLA4 A-F1-6 (ligand)
chain: B9 chain with N21S, T103R, S105M
Binding Score [1]: 1

B12: Round 2 CTLA4 A-F10-1 (ligand)
chain: B9 chain with F197L
Binding Score [1]: 1

B14: Round 1 (R1) CD28BP-71 (ligand)
chain: ITPKSVTKRVKETVMLSCDYNTSTEELTSLRIYWQKDSKMVLAILPGKVQVWPEYKNRTITDMNDNPRIVILALRLSDSGTYTCVIQKPVLKGAYKLEHLASVRLMIRADFPVPTINDLGNPSPNIRRLICSTSGGFPRPHLYWLENGEELNATNTTLSQDPETKLYMISSELDFNMTSNHSFLCLVKYGDLTVSQTFYWQESKPTPSANQHLTWTIIIPVSAFGISVIIAVILTCLTCRNAAIRRQRRENEVEMQSCSQSP
notes: also called R1clone71; Clone 71
Binding Score [2]: 1

B15: Round 2 CD28BP-8 (ligand)
chain: ITPKSVTKRVKETVMLSCDYNTSTEELTSLRIYWQKDSKMVLAILPGKVQVWPEYKNRTITDMNDNPRIVILALRLSDSGTYTCVIQKPVLKGAYKLEHLASVRLMIRADFPVPSITDIGHPAPNVKRIRCSASGGFPEPRLAWMEDGEELNAVNTTVDQDLDTELYSVSSELDSNVTNNHSIVCLIKYGELSVSQIFPWSKPKQEPPIDQLPFWVIIPVSGALVLTAVVLYCLACRHVARWKRTRRNEETVGTERLSPIYLGSAQSSG
Binding Score [2]: 2

B16: Round 2 CTLA4 A-H4-5* (ligand)
chain: ITPKSVTKRVKETVMLSCDYSTSTEELTSLRIYWQKDSKMVLAILPGKVQVWPEYKNRTITDMNDNPRIVILALRLSDKGTYTCVVQKNENGSFRREHLTSVTLSIRADFPVPSITDIGHPAPNVKRIRCSASGGFPEPRLYWLENGEELNATNTTVSQDPGTELYMISSELDFNVTNNHSIVCLIKYGELSVSQIFPWSKPKQEPPIDQLPFWVIIPVSGALVLTAVVLYCLACRHVARWKRTRRNEETVGTERLSPIYLGSAQSSG
Binding Score [1]: 1

B17: Round 2 CTLA4BP 2x4-g9 (ligand)
chain: VIHVTKEVKEVATLSCGHNVSVEELAQTRIYWQKDKKMVLTMMSGDMNIWPEYKNQTIFDITNNLSIVILALRPSDEGTYECVVLKYEKDAFKQEHLAEVMLSVKADFPTPSISDFEIPPSNIRRIICSTSGGFPEPRLAWMEDGEELNAISTTVSQDPGTELCTVSSKLDFNMTTNHSFMCLIRYGHLRVNQTFNWNTPKQEHFPDNLLPSWAITLISVKGIFVICCLTYCFAPRGRERKSNGRLRRESVHPV
Binding Score [1]: 1

B18: Round 2 CTLA4 A-C9-9 (ligand)
chain: SGITPKSVTKRVKETVMLSCDYSTSTEELTSLRIYWQKDSKMVLAILPGKVQVWPEYKNRTFPDIINNLSLMILALRLSDRGTYTCVVQKNENGSFRREHLTSVTLSIRADFPVPSITDIGHPAPNVKRIRCSASGGFPEPRLAWMEDGEELNAVNTTVDQDLDTELYSVGSELDFNVTNNHSIVCLIKYGELSVSQIFPWSKPKQEPPIDQLPFWVIIPVSGALVLTAVVLYCLARRHVARWKRTRRNEETVGTERLSPIYLGSAQSSG
Binding Score [1]: 0

B19: Round 2 CD28D10-4 (ligand)
chain: SGITPKSVTKRVKETVMLSCDYNTSTEELTSLRIYWQKDSKMVLAILPGKVQVWPEYKNRTITDMNDNPRIVILALRLSDKGTYTCVVQKNENGSFRREHLTSVTLSIRADFPVPSITDIGHPAPNVKRIRCSASGGFPEPRLAWMEDGEELNAVNTTVDQDLDTELYSVSSELDFNVTNNHSIVCLIKYGELSVSQIFPWSKPKQEPPIDQLPFWVIIPVSGALVLTAVVLYCLACRHVARWKRTRRNEETVGTERLSPIYLGSAQSSG
Binding Score [2]: 0

B21: Round 2 CTLA4BP 2x1-c9 (ligand)
chain: VIHVTKEVKEVATLSCGHNVSAEELAQTRIYWQKEKKMVLTMMSGDMNIWPEYKNRTIFDITNNLSIVILALRPSDEGTYECVVLEYEKDAFKREHLAEVMLSVKADFPTPSITDFEIPTSNIRRIICSTSGGFPEPRLAWMEDGEELNAISTTASQDPETELYTVSSKLDFNMTTNHSFMCLIKYGHLRVNQTFNWNTPKQEHFPDNLLPSWAITLISVNGIFVICCLTHCFAPRCRERRRNERLRRESVCPV
Binding Score [1]: 1

B22: Round 1 CTLA4BP-7 (ligand)
chain: VIHVTNEVKEVATLSCGHNVSGEELAQTRIYWQKEKKMVLTMMYGDMNIWPEYKNRTIFDITNNLSIVILALRPSDEGTYECVVLKYEKDAFKREHLAEVMLSVKADFPTPSITDFEIPPSNIRRIICLTSGGFPEPRLAWMKDGEELNAISTTVSQDPGTELYAVSSKLDFNMTTNHSFMCLIKYGHLRVNQTFSWNTPKQEHFPDNLLPSWAITLISVNGIFVICCLTYCFAPRCRERRRNERLRRESVRPV
notes: also called R1-7; R1 CTLA-4BP-7
Binding Score [1]: 1

Second part, the binder after the results:

Binding Score [1]: 2
B3: Round 2 CTLA4BP-5x8-1f (ligand)
chain: B1 chain with L18H, S114T, T130A, S140F, K185R, R241K, R242S, T245R

Binding Score [1]: 2
B5: Round 2 CTLA4BP-5x5-6e (ligand)
chain: B1 chain with L18H, S114T, N152S, A165T, P200T, V220A, Y231H, R241K, T245R

Binding Score [1]: 2
B6: Round 2 CTLA4BP-5x6-9d (ligand)
chain: B1 chain with L18H, P120T, A165T, T176A, M181V, T245R

Binding Score [1]: 1
B8: Round 2 CTLA4 A-H3-6 (ligand)
chain: GISQVTKSVKEMAALSCDYNISIDELARMRIYWQKDQQMVLSIISGQVEVWPEYKNRTFPDIINNLSLMILALRLSDKGTYTCVVQKNENGSFRREHLTSVTLSIRADFPVPSINDLGNPSPNIRRLICSTSGGFPRPHLYWLENGEELNATNTTLSQDPETKLYMISSELDFNMTSNHSFLCLVKYGDLTVSQTFYWQESKPTPSANQHLTWTIIIPVSAFGISVIIAVILTCLTCRNAAIRRQRRENEVEMQSCSQSP

Binding Score [1]: 1
B13: Round 2 CTLA4BP 2x1-e2 (ligand)
chain: VIHVTKEVKEVATLSCGHNVSDEELAQTRIHWQKEKKMVLTMMSGDMNIWPEYKNRTIFDITNNLSIVILALRPSDEGTYECVVLKYEKDAFKREHLAEVTLSVKADFPTPSISDFEIPPSNIRRIICSTSGGFPEPHLSWLENGEELNAINTTVSQDPGTELYTVSSKLDFNMTTNHSFMCLIKYGHLRVNQTFNWNTPKQEHFPDNLLPSAITLISANGIFVICCLTYCFAPRCRERRRNERLRRESIHPV

Binding Score [1]: 2
B20: Round 2 CTLA4BP-5x2-10c (ligand)
chain: VIHVTKEVKEVATLSCGHNVSVEELAQTRIHWQKEKKMVLTMMSGDMNIWPEYKNRTIFDITNNLSIVILALRPSDEGTYECVVLKYEKDAFKREHLAEVMLSVKADFPTPSITDFEIPPSNIRRIICSTSGGFPEPHLSWLENGEELNAINTTVSQDPETELYTVSSKLDFNMTANHSFVCLIKYGHLRVNQTFNWNTPKQEHFPDNLLPSWAITLISVNGIFVICCLTYCFAPRCRERRNETLRRESVRPV

Binding Score [1]: 1
B23: Round 2 CTLA4BP 2x2-f3 (ligand)
chain: VIYVTKEVKEVATLSCGHNVSVEELAQTRIYWQKEKKMVLIMMSGDMNIWPEYKNRTIFDITNNLSIVILALRPSDEGTECVVLKYEKDAFKREHLAEVTLSVKADFPTPSISDFEIPPSNIRRIICSTSGGFPEPHLSWLENGEELNAINTTVSQDPGTELYTVSSKLDFNMTTNHSFMCLIKYGHLRVNQTFNWNTPKQEHFPDNLLPSWAITLISVNGIFVICCLTYCFAPRCRERRRNERLRRESVCPV
